In PMC7518326 (2020):

Target: T1, BBI (Bcl9 peptide) 351-357 (Homo sapiens, UniProt O00512)
T1 chain: LSQEQLE

- Kd: ~1 µM
B1: β-catenin (protein)
chain: ATQADLMELDMAMEPDRKAAVSHWQQQSYLDSGIHSGATTTAPSLSGKGNPEEEDVDTSQVLYEWEQGFSQSFTQEQVADIDGQYAMTRAQRVRAAMFPETLDEGMQIPSTQFDAAHPTNVQRLAEPSQMLKHAVVNLINYQDDAELATRAIPELTKLLNDEDQVVVNKAAVMVHQLSKKEASRHAIMRSPQMVSAIVRTMQNTNDVETARCTAGTLHNLSHHREGLLAIFKSGGIPALVKMLGSPVDSVLFYAITTLHNLLLHQEGAKMAVRLAGGLQKMVALLNKTNVKFLAITTDCLQILAYGNQESKLIILASGGPQALVNIMRTYTYEKLLWTTSRVLKVLSVCSSNKPAIVEAGGMQALGLHLTDPSQRLVQNCLWTLRNLSDAATKQEGMEGLLGTLVQLLGSDDINVVTCAAGILSNLTCNNYKNKMMVCQVGGIEALVRTVLRAGDREDITEPAICALRHLTSRHQEAEMAQNAVRLHYGLPVVVKLLHPPSHWPLIKATVGLIRNLALCPANHAPLREQGAIPRLVQLLVRAHQDTQRRTSMGGTQQQFVEGVRMEEIVEGCTGALHILARDVHNRIVIRGLNTIPLFVQLLYSPIENIQRVAAGVLCELAQDKEAAEAIEAEGATAPLTELLHSRNEGVATYAAAVLFRMSEDKPQDYKKRLSVELTSSLFRTEPMAWNETADLGLDIGAQGEPLGYRQDDPSYRSFHSGGYGQDALGMDPMMEHEMGGHHPGADYPVDGLPDLGHAQDLMDGLPPGDSNQLAWFDTDL
